# B1: OTU domain-containing protein 3 (Homo sapiens), Q5T2D3 (parent)
# chain: MSRKQAAKSRPGSGSRKAEAERKRDERAARRALAKERRNRPESGGGGGCEEEFVSFANQLQALGLKLREVPGDGNCLFRALGDQLEGHSRNHLKHRQETVDYMIKQREDFEPFVEDDIPFEKHVASLAKPGTFAGNDAIVAFARNHQLNVVIHQLNAPLWQIRGTEKSSVRELHIAYRYGEHYDSVRRINDNSEAPAHLQTDFQMLHQDESNKREKIKTKGMDSEDDLRDEVEDAVQKVCNATGCSDFNLIVQNLEAENYNIESAIIAVLRMNQGKRNNAEENLEPSGRVLKQCGPLWEEGGSGARIFGNQGLNEGRTENNKAQASPSEENKANKNQLAKVTNKQRREQQWMEKKKRQEERHRHKALESRGSHRDNNRSEAEANTQVTLVKTFAALNI
# partner: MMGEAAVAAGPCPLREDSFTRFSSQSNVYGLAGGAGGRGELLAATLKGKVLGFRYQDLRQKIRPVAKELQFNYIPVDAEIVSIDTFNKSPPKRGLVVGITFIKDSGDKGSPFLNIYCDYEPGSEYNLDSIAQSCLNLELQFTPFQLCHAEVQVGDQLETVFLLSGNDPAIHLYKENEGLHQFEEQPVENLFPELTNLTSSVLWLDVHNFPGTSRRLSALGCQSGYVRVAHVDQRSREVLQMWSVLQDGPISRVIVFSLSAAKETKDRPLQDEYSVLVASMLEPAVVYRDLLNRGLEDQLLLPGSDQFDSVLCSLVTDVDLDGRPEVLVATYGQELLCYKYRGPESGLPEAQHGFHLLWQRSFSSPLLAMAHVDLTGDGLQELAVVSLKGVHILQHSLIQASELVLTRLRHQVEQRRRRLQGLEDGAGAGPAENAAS
# Variants of: B1
# Settings: with kptn_human KPTN
row,Variant,effect of a mutation on the interaction
1,MSRKQAAKSRPGSGSRKAEAERKRDERAARRALAKERRNRPESGGGGGCEEEFVSFANQLQALGLKLREVPGDGNALFRALGDQLEGHSRNHLKHRQETVDYMIKQREDFEPFVEDDIPFEKHVASLAKPGTFAGNDAIVAFARNHQLNVVIHQLNAPLWQIRGTEKSSVRELHIAYRYGEHYDSVRRINDNSEAPAHLQTDFQMLHQDESNKREKIKTKGMDSEDDLRDEVEDAVQKVCNATGCSDFNLIVQNLEAENYNIESAIIAVLRMNQGKRNNAEENLEPSGRVLKQCGPLWEEGGSGARIFGNQGLNEGRTENNKAQASPSEENKANKNQLAKVTNKQRREQQWMEKKKRQEERHRHKALESRGSHRDNNRSEAEANTQVTLVKTFAALNI [C76A],with no effect

# Reference: IntAct's records for PubMed 38288086
